One molecule from patent publication US20230086069A1 can be followed below.

The assay addresses cynomolgus CD19 (cynomolgus). Put plainly: BLI (Octet); cynomolgus CD19. (In general: BLI is a label-free optical method that tracks binding on a fibre tip over time.)

B1: SI-63C2 (recombinant mAb with H1 humanized anti-CD19 variable sequence) (antibody, V domains shown)
VH: QVTLKESGPGLVQPGQTLRLTCAFSGFSLSTSGMGVGWIRQPPGKGLEWLAHIWWDDDKRYNPALKSRLTISKDTSKNQVYLQMNSLDAEDTAVYYCARMELWSYYFDYWGQGTLVTVSS
VL: ENVLTQSPASLSASPGERVTITCSASSSVSYMHWYQQKPGQAPKLWIYDTSKLASGVPSRFSGSGSGNDHTLTISSMEPEDFATYYCFQGSVYPFTFGQGTKLEIKR
In the case of B1, the Kd – broadly, the equilibrium constant for the complex coming apart – was 3.6 nM.
